Source: patent US7709240B2, “AMP deaminase originating streptomyces and utilization thereof” (Amano Enzyme Inc., priority 2004, dated 2010)
Entries after “also recorded” stand apart in the source; their conditions may differ.

How the values were obtained:
[1] = Thermostability of purified enzyme: residual activity after 30 minutes at each temperature; format: physicochemical
Procedure: (§1) By using the decrease of OD265 at the time of reaction as an index, the enzyme activity was measured. To 1.5 ml of solution obtained by mixing 0.017M 5′ AMP-2Na and 1/15M phosphate buffer solution (pH 5.6) at the ratio of 1:2, 0.5 ml of sample solution was added so as to obtain a reaction solution, which was reacted at 37° C. for 15 minutes. Then, 2% perchloric acid solution was added so as to stop the reaction and 100 μl of the solution was taken out. Water was added to the solution so that the total amount was 5 ml. Then, OD265 was measured. The value similarly measured at reaction time of 0 minute was defined as a blank. Under the above-mentioned conditions, a case where an absorbance difference is reduced by 0.001 during 60 minutes was defined as one unit.
Subsequently, the thermostability of the enzyme was examined by the following procedure. An enzyme solution (0.15 ml) containing 2.8 μg protein (total amount) was adjusted to pH 5.6 by using acetate buffer (pH 5.0), and then treated for 30 minutes at each temperature (40° C., 50° C., 60° C., 65° C., 70° C., and 75° C.). Then, the residual activity (percent with respect to the enzyme activity in the case where the treatment was not carried out) was measured. At 65° C. or less, about 90% or more of activity is maintained. Furthermore, also when the treatment is carried out at 70° C., about 55% of the activity is maintained.

[2] = Relation between pH and activity of purified enzyme; format: biochemical
Procedure: as §1
Next, the relation between pH and activity of the obtained purified enzyme was examined. […] In the wide range of pH from about 4.5 to about 8.5, relatively high activity is observed. In the range of pH from about 5.0 to about 8.0, 70% or more of the reaction property is observed. Furthermore, it is shown that even in the case where pH is 9.0, about 40% of reactivity is obtained.

[3] = pH stability of purified enzyme; format: physicochemical; conditions: pH from about 6.5 to about 8.0, 30° C. for 30 minutes; treatment at pH 7.0 = reference
Procedure: Next, pH stability of the enzyme was examined by the following procedure. An enzyme solution (0.15 ml) containing 2.8 μg protein (total amount) was adjusted to pH 3 to 8 by using McIlvaine buffer solution, and to pH 8 to 10 by using Atkins-pantin buffer solution. The solution was then allowed to stand at 30° C. for 30 minutes. Thereafter, the residual activity (percent with respect to the enzyme activity in the case where the treatment was carried out in pH 7.0) was measured. It is shown that in the range of pH from about 6.0 to about 8.5, relatively high activity is maintained, and in the range of pH from about 6.5 to about 8.0, about 80% or more of activity is maintained.

[4] = Contaminated phosphatase activity; format: biochemical; conditions: 37° C., pH 5.6
Procedure: To 1.5 ml of solution obtained by mixing 0.025M 5′IMP-2Na and 0.036M barbital sodium-hydrochloric acid buffer solution (pH 5.6) at the ratio of 1:2, 0.5 ml of sample solution was added so as to obtain a reaction solution, which was reacted at 37° C. for 30 minutes. After the reaction was completed, 200 μl of the solution was taken out, and 5 ml of 6% perchloric acid solution was added so as to stop the reaction. Amidol solution (0.05M, 0.25 ml) was added and mixed, followed by adding and mixing 0.25 ml of 0.067 M ammonium molybdate solution, and further adding and mixing 0.25 ml of water, which was allowed to stand in flowing water for 15 minutes. Then, OD265 was measured. A value similarly measured at the reaction time of 0 minute was defined as a blank. Under the above-mentioned conditions, a case where an absorbance difference is reduced by 0.001 during 30 minutes was defined as one unit.
The contaminated phosphatase activities concerning Aspergillus melleus and Streptomyces murinus were measured. In Aspergillus melleus, the contamination activity was observed. On the other hand, in Streptomyces murinus, the phosphatase activity was not observed.

[5] = Feasibility test 1: nuclease and deaminase treatment of yeast lysate carried out independently; conditions: after nuclease treatment; deaminase at 50° C., pH 6, 5 hours
Procedure: In test 1, similar to the current production method, treatment with nuclease and treatment with deaminase were carried out independently. Specifically, the treatment was carried out by the following procedure and the IMP conversion rate was calculated. Firstly, nuclease “AMANO” G (Amano Enzyme Inc., 0.1% w/w yeast solid) was added to yeast lysate (YL-15, 0.2%) and they were reacted with each other under the conditions at a temperature of 70° C. and pH 5 for 3 hours. Then, “Deamizyme (50,000 u/mg product) (trade name of Amano Enzyme Inc., 0.01 to 0.04% w/w yeast solid)” that is an AMP deaminase agent derived from the test enzyme (Aspergillus melleus), or a crude enzyme solution prepared from Streptomyces murinus was added and reacted with each other under the conditions at a temperature of 50° C. and pH 6 for 5 hours. Then, the reacted product was heat treated, and then subjected to HPLC analysis. Note here that added amount of AMP deaminase derived from Streptomyces murinus was set so that the activity value thereof became the same as that of “Deamizyme (50,000 u/mg product)” (trade name, Amano Enzyme Inc.)

Substrate specificity [6] = format: biochemical
Substrate specificity [7] = format: biochemical; remark: listed apart in the source

B1: AMP deaminase derived from Streptomyces murinus: thermostable AMP deaminase enzyme produced by Streptomyces murinus IFO14802; amino acid sequence SEQ ID NO: 1 (protein, listed as Streptomyces murinus)
chain: APPPRQATAAEARTDAYLRSVKDRPAALRAFFRQLPKGGDLHNHLSGAVNTDYLIELAAEDGLCIDATMTAVPSPCGPGTRPAADARTDRAFHDAIVRAWSMQDFPPDENGHDHFFDTFGKFGEVTWRHRGKLLAQVADTVVANNQSYLETMVTPASDGAKQLADQVGWDADLTALHRKLAAGGKLDKLVADARKEADDGDAEFRATEHCGTAKARPACGLTVRWISQASRGSSPVRVFTQLDLGMRLAEADSRFVAVNLVQPEDWDSSLENYSLQMRMVGYLRTVYPKAHVTLHAGELWPGLVKPEALKFHIAEAVDIAHTQRVGHGVDLVHEDNWQRTARTMAARQIAVEVPFSSNAQILGVKGAEHPFTTYRRYGVPVVLATDDPGVSRIDISHEYQYAAATYGLGYPELKDLARASLQYAFLPGASLWQGNPTAQGYHPVAACRAERPGQPVHSAACRRLLDGSARARLEWRQEAAFAAFERAHARG
- temperature stability (stable at) ([1]; acetate buffer solution (pH 5.6)): ≤ 65 °C
- residual activity ([1]; treated at 70° C. for 30 minutes, pH 5.6 acetate buffer, untreated = 100%): about 55%
- optimum pH ([2]; McIlvaine buffer solution): around 5.6
- relative activity (reactivity) ([2]; pH 9.0, activity at pH 5.6 = 100%): about 40%
- relative activity (reaction property) ([2]; pH from about 5.0 to about 8.0, activity at pH 5.6 = 100%): ≥ 70%
- residual activity [3]: ≥ 80%
- contaminated phosphatase activity [4]: not observed; also recorded: not detected
- IMP conversion rate compared with AMP deaminase derived from Aspergillus melleus [5]: equivalent
- action on substrate 5′-GMP (Substrate specificity [6]): did not act on
- action on substrate 5′-CMP (Substrate specificity [7]): did not act on
